# Experimental data published in paper PMC6517402 (Scientific Reports, 2019).
# B1: ORF212 tailspike protein (TSP3) of E. coli O157:H7 phage CBA120 (enzyme, UniProt G3M191 1-627, looked up)
# chain: MISQFNQPRGSTSIEVNKQSIARNFGVKEDEVIYFTAGIDLSGFKVIYDESTQRAYSLPFGIVSGTTAISLDERAILTHSAGSVDLGELAVSREEYVTLPGSFNFGHTINVKNELLVHDDKKYRWDGSLPKVVAAGSTPDSSGGVGLGAWLSVGDAALRAELNTKVSDGTFPATIKYKYGLPSVIDGAIYRTVQDKLDDFVFLEDFGGKDDAGSTDNSIAFRKAFASGARKIRLRGSGVYGMATRDIELPAKYEIIGNAKNPEIKYLGTDTSFTMFTLTGSGPASNQWKQGGMFRDLIISSDVKINWMLGRHVQNLDYDRVFFYNSATVLNNYHYVNFTRCERWGSAFIGRADLNTIQFISESPKFHLCFSSGSPIDVWDTADLAITKCTMFAGDYAVRTRVTQKQVTAPDLFAGYPVLITCSVFDAVRGHAWDLEGSVYSTITGNLVSAGRDTNSHGAYIKGGRSLSLTGNVFTYCGNYGLVLEDVQQSGFVGNVFNGNKTGGLGTLACKDLSIVGGSMGTTYVRGGYYTQPVGYSDISSNSTGILLSGVAFDEALTTKVYLDTSITTRNKVINCSGVPDTIARGSTANRPANPQASYQYYDTTLGIPIWWNSVSGTWKNAAGADV
# notes: also called CBA120 TSP3; wild-type TSP3
# Target: the molecule itself
# Test: crystal structure; X-ray, 1.85 Å, SAD phasing with SeMet protein, then molecular replacement into the wild-type crystal; three molecules in the asymmetric unit
protein,measurement,value
B1,stoichiometry N,3
